Numbering of substitutions follows the chain as printed.

Assay [1] concerns the target T1, human FcRH5 protein fragment (soluble) (human, UniProt Q96RD9 16-851).
T1 construct: whole entry named; also called soluble human FcRH5; Human FcRH5 (BIACORE analyte)
T1 sequence: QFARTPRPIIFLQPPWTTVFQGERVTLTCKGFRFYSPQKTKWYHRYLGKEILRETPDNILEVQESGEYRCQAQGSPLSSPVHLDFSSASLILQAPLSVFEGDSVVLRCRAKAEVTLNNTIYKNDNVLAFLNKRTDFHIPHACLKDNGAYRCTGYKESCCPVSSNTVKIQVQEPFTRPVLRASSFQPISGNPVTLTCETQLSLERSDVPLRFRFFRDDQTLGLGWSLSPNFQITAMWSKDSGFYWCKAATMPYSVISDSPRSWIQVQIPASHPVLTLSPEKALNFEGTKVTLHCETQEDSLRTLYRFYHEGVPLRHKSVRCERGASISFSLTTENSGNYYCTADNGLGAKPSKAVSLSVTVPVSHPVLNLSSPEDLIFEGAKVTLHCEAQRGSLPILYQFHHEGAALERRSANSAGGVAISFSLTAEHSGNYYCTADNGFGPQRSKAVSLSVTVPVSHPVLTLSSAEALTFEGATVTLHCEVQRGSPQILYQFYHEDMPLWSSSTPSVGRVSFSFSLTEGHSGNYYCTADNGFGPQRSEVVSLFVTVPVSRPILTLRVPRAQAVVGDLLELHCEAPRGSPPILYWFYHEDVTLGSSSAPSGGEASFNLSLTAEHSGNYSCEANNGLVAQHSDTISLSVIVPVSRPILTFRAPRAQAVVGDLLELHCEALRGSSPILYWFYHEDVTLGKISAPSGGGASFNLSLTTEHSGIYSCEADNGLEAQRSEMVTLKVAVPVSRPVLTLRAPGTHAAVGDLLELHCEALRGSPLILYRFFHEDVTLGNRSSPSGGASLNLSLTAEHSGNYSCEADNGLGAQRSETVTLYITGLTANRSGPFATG
Kind of assay: BIACORE, TDB format.

The target in assay [2] is T2, human FcRH2 (full-length, on SVT2 cells) (human, UniProt Q96LA5 20-508).
T2 construct: whole, on cells; also called SVT2-FcRH2
T2 sequence (looked up): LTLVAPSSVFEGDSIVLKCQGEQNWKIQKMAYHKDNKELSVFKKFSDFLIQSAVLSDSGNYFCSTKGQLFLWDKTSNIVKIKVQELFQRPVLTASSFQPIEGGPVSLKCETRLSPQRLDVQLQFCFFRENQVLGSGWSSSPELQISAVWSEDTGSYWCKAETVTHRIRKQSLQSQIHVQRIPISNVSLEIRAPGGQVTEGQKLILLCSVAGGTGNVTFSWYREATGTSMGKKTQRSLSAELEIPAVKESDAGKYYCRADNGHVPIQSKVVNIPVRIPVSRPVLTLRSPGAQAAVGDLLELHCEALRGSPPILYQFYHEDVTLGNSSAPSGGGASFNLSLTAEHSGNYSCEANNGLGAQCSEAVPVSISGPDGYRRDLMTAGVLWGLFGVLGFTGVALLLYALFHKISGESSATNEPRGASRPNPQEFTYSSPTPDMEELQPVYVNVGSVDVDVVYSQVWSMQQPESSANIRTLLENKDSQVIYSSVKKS
Nature of the assay: FACS, SVT2 cells, 3 µg/ml. The procedure: (§1) Human FcRH5, cyno FcRH5, human FcRH1, FcRH2, FcRH3, and FcRH4 transfected mouse SVT2 cells were used to test binding and cross-reactivity of FcRH5 TDBs. The method was carried out as follows. Cultured SVT2 cells were lifted using non-enzyme cell dissociation buffer (Sigma, #C5914). 1×10⁵ cells were suspended in 100 μL and incubated with FcRH5 TDBs at 3 μg/ml. […] Cells were washed twice with FACS buffer before flow cytometry analysis was carried out on a FACSCalibur.

The target of assay [3] is T3, human FcRH4 (full-length, on SVT2 cells) (human, UniProt Q96PJ5 20-515).
T3 construct: whole, on cells; also called SVT2-FcRH4
T3 sequence (looked up): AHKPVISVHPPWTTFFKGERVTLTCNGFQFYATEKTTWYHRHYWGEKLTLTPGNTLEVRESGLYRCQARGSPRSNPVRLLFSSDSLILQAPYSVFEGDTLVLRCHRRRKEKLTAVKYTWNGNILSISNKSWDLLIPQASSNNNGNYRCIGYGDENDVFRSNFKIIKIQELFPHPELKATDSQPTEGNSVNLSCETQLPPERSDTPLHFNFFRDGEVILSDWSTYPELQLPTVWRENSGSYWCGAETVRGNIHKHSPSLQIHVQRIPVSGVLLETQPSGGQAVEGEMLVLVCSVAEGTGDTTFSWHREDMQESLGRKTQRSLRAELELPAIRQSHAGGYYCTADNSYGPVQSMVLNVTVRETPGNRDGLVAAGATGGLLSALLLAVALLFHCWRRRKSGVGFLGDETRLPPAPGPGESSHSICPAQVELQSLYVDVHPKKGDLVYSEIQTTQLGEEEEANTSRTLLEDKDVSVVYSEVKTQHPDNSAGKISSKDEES
Nature of the assay: FACS, SVT2 cells. As to the method: as §1

The target in assay [4] is T4, human FcRH1 (full-length, on SVT2 cells) (human, UniProt Q96LA6 17-429).
T4 construct: whole, on cells; also called SVT2-FcRH1
T4 sequence (looked up): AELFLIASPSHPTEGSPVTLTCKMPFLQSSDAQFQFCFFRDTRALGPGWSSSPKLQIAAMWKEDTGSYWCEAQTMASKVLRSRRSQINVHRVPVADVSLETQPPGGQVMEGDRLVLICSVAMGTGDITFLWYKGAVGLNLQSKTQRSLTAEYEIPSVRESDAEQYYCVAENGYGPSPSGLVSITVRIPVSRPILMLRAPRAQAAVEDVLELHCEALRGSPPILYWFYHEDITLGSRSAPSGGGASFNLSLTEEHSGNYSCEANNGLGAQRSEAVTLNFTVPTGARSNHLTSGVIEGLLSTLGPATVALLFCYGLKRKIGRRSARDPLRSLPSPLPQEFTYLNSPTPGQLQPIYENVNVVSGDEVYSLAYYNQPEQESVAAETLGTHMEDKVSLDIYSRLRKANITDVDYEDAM
Kind of assay: FACS, SVT2 cells. The procedure:
as §1

B1: hu1G7.v1.4/38E4.v1 TDB (bispecific antibody, V domains shown)
VH 1: EVQLVESGPGLVKPSETLSLTCTVSGFSLTRFGVHWVRQPPGKGLEWLGVIWRGGSTDYNAAFMSRLTISKDNSKNQVSLKLSSVTAADTAVYYCSNHYYGSSDYALDNWGQGTLVTVSS
VL 1: DIQMTQSPSSLSASVGDRVTITCKASQDVRNLVVWFQQKPGKAPKLLIYSGSYRYSGVPSRFSGSGSGTDFTLTISSLQPEDFATYYCQQHYSPPYTFGQGTKVEIK
VH 2: EVQLVQSGAEVKKPGASVKVSCKASGFTFTSYYIHWVRQAPGQGLEWIGWIYPENDNTKYNEKFKDRVTITADTSTSTAYLELSSLRSEDTAVYYCARDGYSRYYFDYWGQGTLVTVSS
VL 2: DIVMTQSPDSLAVSLGERATINCKSSQSLLNSRTRKNYLAWYQQKPGQSPKLLIYWTSTRKSGVPDRFSGSGSGTDFTLTISSLQAEDVAVYYCKQSFILRTFGQGTKVEIK
notes: knob-into-hole TDB; also called 1G7.v1.4 TDB; 1G7.v1.4 (TDB format)
As to B1, binding in assay [1] was characterised by a dissociation constant (Kd) of 1.4 nM. The binding result was “binds” in assay [2], “no binding (tested: 3 µg/ml)” in assay [3] and “no binding (tested: 3 µg/ml)” in assay [4].

B2: hu1G7.v1.13.1/38E4.v1 TDB (bispecific antibody, V domains shown)
VH 1: B1 VH 1
VL 1: B1 VL 1 with S52Y, S56T, S93Q
VH 2: B1 VH 2
VL 2: B1 VL 2
notes: knob-into-hole TDB; also called 1G7.v1.13.1 TDB
In the case of B2, the Kd in assay [1] worked out at 0.9 nM. Further, the binding result in assay [2] is recorded as “binds”; in assay [3], “no binding (tested: 3 µg/ml)”; in assay [4] it was “no binding (tested: 3 µg/ml)”.

B3: hu1G7.v1.1/38E4.v1 TDB (bispecific antibody, V domains shown)
VH 1: B1 VH 1
VL 1: B1 VL 1 with H91Q
VH 2: B1 VH 2
VL 2: B1 VL 2
notes: knob-into-hole TDB; also called 1G7.v1.1 TDB
B3 gave a Kd in assay [1] of 2.7 nM. Besides, the values for the binding result in assay [2], in assay [3] and in assay [4] were “binds”, “no binding (tested: 3 µg/ml)” and “no binding (tested: 3 µg/ml)”, respectively.

B4: hu1G7.v1.3/38E4.v1 TDB (bispecific antibody, V domains shown)
VH 1: B1 VH 1
VL 1: B1 VL 1 with L32I, H91Q
VH 2: B1 VH 2
VL 2: B1 VL 2
notes: knob-into-hole TDB; also called 1G7.v1.3 TDB
With B4, the dissociation constant Kd in assay [1] was determined as 1.5 nM. Moreover, the binding result is on record as “binds” in assay [2], “no binding (tested: 3 µg/ml)” in assay [3] and “no binding (tested: 3 µg/ml)” in assay [4].

B5: hu1G7.v1.2/38E4.v1 TDB (bispecific antibody, V domains shown)
VH 1: B1 VH 1
VL 1: B1 VL 1 with S52Y, Y53N, H91Q, Y92F, S93Q
VH 2: B1 VH 2
VL 2: B1 VL 2
notes: knob-into-hole TDB; also called 1G7.v1.2 TDB
For the molecule B5, the affinity in assay [1], expressed as Kd, was 2.6 nM. Also, the binding result in assay [2] is “binds”; in assay [3], “no binding (tested: 3 µg/ml)”; in assay [4], “no binding (tested: 3 µg/ml)”.

B6: hu1G7.v1.13/38E4.v1 TDB (bispecific antibody, V domains shown)
VH 1: B1 VH 1 with L48I
VL 1: B1 VL 1 with S52Y, S56T, S93Q
VH 2: B1 VH 2
VL 2: B1 VL 2
notes: knob-into-hole TDB; also called 1G7.v1.13 TDB
Molecule B6 registered an equilibrium dissociation constant (Kd) in assay [1] of 1.2 nM. Also, the figures for the binding result in assay [2], in assay [3] and in assay [4] were “binds”, “no binding (tested: 3 µg/ml)” and “no binding (tested: 3 µg/ml)”, respectively.

(Values after US20240383984A1 (Genentech, published 2024).)
